In patent US10117916B2, “Peptides and combination of peptides for use in immunotherapy against CLL and other cancers” (immatics biotechnologies GmbH, priority 2015, dated 2018):

target: HLA-A*02:01 (Homo sapiens, UniProt P04439, D140Y/D185E/D98H/E176V/E277Q/G131W/G231S/I119V/I121R/I166T/I218V/L300P/L318F/N151K/N90K/P208A/P217A/Q86G/Q94H/R138H/R169H/T345S); experiment: MHC binding assay: UV-ligand exchange with β2m ELISA (peptide exchange yield); settings: MHC class I binding score; binding to HLA-A*02:01 ranged by peptide exchange yield (UV-ligand exchange, β2m ELISA)
From the text: Candidate peptides for T cell based therapies according to the present invention were further tested for their MHC binding capacity (affinity). The individual peptide-MHC complexes were produced by UV-ligand exchange, where a UV-sensitive peptide is cleaved upon UV-irradiation, and exchanged with the peptide of interest as analyzed. Only peptide candidates that can effectively bind and stabilize the peptide-receptive MHC molecules prevent dissociation of the MHC complexes. To determine the yield of the exchange reaction, an ELISA was performed based on the detection of the light chain (β2m) of stabilized MHC complexes. The assay was performed as generally described in Rodenko et al. (Rodenko et al., 2006).
96 well MAXISorp plates (NUNC) were coated over night with 2 ug/ml streptavidin in PBS at room temperature, washed 4× and blocked for 1 h at 37° C. in 2% BSA containing blocking buffer. Refolded HLA-A*02:01/MLA-001 monomers served as standards, covering the range of 15-500 ng/ml. Peptide-MHC monomers of the UV-exchange reaction were diluted 100 fold in blocking buffer. Samples were incubated for 1 h at 37° C., washed four times, incubated with 2 ug/ml HRP conjugated anti-β2m for 1 h at 37° C., washed again and detected with TMB solution that is stopped with […]. Absorption was measured at 450 nm. Candidate peptides that show a high exchange yield (preferably higher than 50%, most preferred higher than 75%) are generally preferred for a generation and production of antibodies or fragments thereof, and/or T cell receptors or fragments thereof, as they show sufficient avidity to the MHC molecules and prevent dissociation of the MHC complexes.

Substance	Peptide Exchange
74 (GLLRASFLL; listed as Homo sapiens) [compound 74]	″++″ (≥20% = ++)
190 (VVMGTVPRL; listed as Homo sapiens) [compound 190]	″+++″ (≥50 = +++)
104 (KLILLDTPLFL; listed as Homo sapiens) [compound 104]	″+++″ (≥50 = +++)
344 (VLAFENPQV; listed as Homo sapiens) [compound 344]	″+++″ (≥50 = +++)
30 (ELLEGSEIYL; listed as Homo sapiens) [compound 30]	″+++″ (≥50 = +++)
12 (ALGEDEITL; listed as Homo sapiens) [compound 12]	″+++″ (≥50 = +++)
41 (FLDPSLDPLL; listed as Homo sapiens) [compound 41]	″+++″ (≥50 = +++)
36 (FILTHVDQL; listed as Homo sapiens) [compound 36]	″++++″ (≥75% = ++++)
177 (VLDDRELLL; listed as Homo sapiens) [compound 177]	″+++″ (≥50 = +++)
272 (VLDELPPLI; listed as Homo sapiens) [compound 272]	″+++″ (≥50 = +++)
185 (VMDDQRDLI; listed as Homo sapiens) [compound 185]	″++″ (≥20% = ++)
67 (GLDDVTVEV; listed as Homo sapiens) [compound 67]	″++″ (≥20% = ++)
82 (GLQSGVDIGV; listed as Homo sapiens) [compound 82]	″+++″ (≥50 = +++)
363 (ITTEVVNELYV; listed as Homo sapiens) [compound 363]	″+++″ (≥50 = +++)
28 (AVLHLLLSV; listed as Homo sapiens) [compound 28]	″++″ (≥20% = ++)
131 (LQALEVLKI; listed as Homo sapiens) [compound 131]	″+″ (≥10% = +)
128 (LLSEEEYHL; listed as Homo sapiens) [compound 128]	″+++″ (≥50 = +++)
85 (HLMLHTAAL; listed as Homo sapiens) [compound 85]	″++++″ (≥75% = ++++)
189 (VMLEMTPEL; listed as Homo sapiens) [compound 189]	″+++″ (≥50 = +++)
156 (SLNIGDVQL; listed as Homo sapiens) [compound 156]	″+++″ (≥50 = +++)

Substance	Peptide Exchange
125 (LLLEIGEVGKLFV; listed as Homo sapiens) [compound 125]	″+++″ (≥50 = +++)
66 (SLAGGLDDMKA; listed as Homo sapiens) [compound 66]	″+++″ (≥50 = +++)
39 (FLDALLTDV; listed as Homo sapiens) [compound 39]	″+++″ (≥50 = +++)
115 (LLFDKLYLL; listed as Homo sapiens) [compound 115]	″+++″ (≥50 = +++)
137 (NLIKTVIKL; listed as Homo sapiens) [compound 137]	″+++″ (≥50 = +++)
237 (GLQENLDVVV; listed as Homo sapiens) [compound 237]	″++++″ (≥75% = ++++)
333 (VTLEFPQLIRV; listed as Homo sapiens) [compound 333]	″+++″ (≥50 = +++)
267 (TLLDWQDSL; listed as Homo sapiens) [compound 267]	″+++″ (≥50 = +++)
270 (TVLPVPPLSV; listed as Homo sapiens) [compound 270]	″+++″ (≥50 = +++)
20 (ALVDPGPDFVV; listed as Homo sapiens) [compound 20]	″+++″ (≥50 = +++)
111 (KLWNVAAPLYL; listed as Homo sapiens) [compound 111]	″+++″ (≥50 = +++)
158 (SLPEAPLDV; listed as Homo sapiens) [compound 158]	″+++″ (≥50 = +++)
247 (KLKDRLPSI; listed as Homo sapiens) [compound 247]	″++″ (≥20% = ++)
277 (VMILKLPFL; listed as Homo sapiens) [compound 277]	″++″ (≥20% = ++)
209 (ILQAELPSL; listed as Homo sapiens) [compound 209]	″+++″ (≥50 = +++)
230 (FLQDSKVIFV; listed as Homo sapiens) [compound 230]	″+++″ (≥50 = +++)
317 (NLLAHIWAL; listed as Homo sapiens) [compound 317]	″+++″ (≥50 = +++)
384 (YMIGSEVGNYL; listed as Homo sapiens) [compound 384]	″++++″ (≥75% = ++++)
358 (FLTDYLNDL; listed as Homo sapiens) [compound 358]	″+++″ (≥50 = +++)
60 (FVLDHEDGLNL; listed as Homo sapiens) [compound 60]	″+++″ (≥50 = +++)

Substance	Peptide Exchange
73 (GLLEVISALQL; listed as Homo sapiens) [compound 73]	″+++″ (≥50 = +++)
339 (GLWGTVVNI; listed as Homo sapiens) [compound 339]	″+++″ (≥50 = +++)
327 (VLIKWFPEV; listed as Homo sapiens) [compound 327]	″++++″ (≥75% = ++++)
203 (ALLSSQLAL; listed as Homo sapiens) [compound 203]	″+++″ (≥50 = +++)
231 (FLYIRQLAI; listed as Homo sapiens) [compound 231]	″+++″ (≥50 = +++)
44 (FLLSINDFL; listed as Homo sapiens) [compound 44]	″+++″ (≥50 = +++)
76 (GLLRIIPYL; listed as Homo sapiens) [compound 76]	″+++″ (≥50 = +++)
379 (YLAELVTPIL; listed as Homo sapiens) [compound 379]	″+++″ (≥50 = +++)
164 (SVHKGFAFV; listed as Homo sapiens) [compound 164]	″+++″ (≥50 = +++)
46 (YIIDSAQAV; listed as Homo sapiens) [compound 46]	″+++″ (≥50 = +++)
365 (LISPLLLPV; listed as Homo sapiens) [compound 365]	″+++″ (≥50 = +++)
246 (KLDETGVAL; listed as Homo sapiens) [compound 246]	″++″ (≥20% = ++)
274 (VLLEYHIAYL; listed as Homo sapiens) [compound 274]	″+++″ (≥50 = +++)
301 (AASPIITLV; listed as Homo sapiens) [compound 301]	″+++″ (≥50 = +++)
210 (KLLVQDFFL; listed as Homo sapiens) [compound 210]	″+++″ (≥50 = +++)
63 (SLAHVAGCEL; listed as Homo sapiens) [compound 63]	″+++″ (≥50 = +++)
222 (ALWELSLKI; listed as Homo sapiens) [compound 222]	″+++″ (≥50 = +++)
382 (YLLPLLQRL; listed as Homo sapiens) [compound 382]	″++++″ (≥75% = ++++)
50 (FLFEPVVKAFL; listed as Homo sapiens) [compound 50]	″+++″ (≥50 = +++)
